Substrate in this data set: NCCc1ccc(O)c(O)c1
The experiment in a line: cells, lysate or membranes. The note with it: other: [3H]dopamine uptake at 1 min, HEK293 cells expressing mMATE1, mean ± S.E., n=3; pH 7.4; 37.0 °C.

B1: mMATE1 (Mus musculus) (protein)
chain: MERTEESAPGPGGADAASERRGLRCLLLPGFLEELRALLVLAGPAFLAQLMMFLISFISSVFCGHLGKLELDAVTLAIAVINVTGISVGHGLSSACDTLISQTYGSQNLKHVGVILQRGTLILLLCCFPCWALFINTEQILLLFRQDPDVSRLTQTYVMIFIPALPAAFLYTLQVKYLLNQGIVLPQIMTGIAANLVNALANYVFLYHLHLGVMGSALANTISQFALAIFLFLYILWRRLHQATWGGWSWECLQDWASFLRLAIPSMLMLCIEWWAYEVGSFLSGILGMVELGAQSITYELAIIVYMIPSGFSVAANVRVGNALGAGNIDQAKKSSAISLIVTELFAVTFCVLLLGCKDLVGYIFTTDRDIVALVAQVIPIYAVSHLFEGLACTCGGILRGTGNQKVGAIVNAIGYYVIGLPIGIALMFAAKLGVIGLWSGIIICTTCQTTCFLAFIARLNWKRACQQAQVHANLKVNVALNSAVSHEPAHPVCPESHGEIMMTDLEKKDETQLDQPMNQQQALPIRPKDSNKLSGKQLALRRGLLLLGVVLVLVGGILVRVYIRIE
Regarding B1, the Km is on record as 0.53 ± 0.08 mM.

(Values after PMC5000626, “Urinary Dopamine as a Potential Index of the Transport Activity of Multidrug and Toxin Extrusion in the Kidney” (International Journal of Molecular Sciences, 2016).)
